From patent publication US12692305

How the values were obtained:
[1] = biological target: PD-1 on in vitro activated primary human T cells (human) (UniProt Q15116); experiment: flow cytometry, detection antibody on Ki-67+ CD8+ activated T cells after 4 d with 100 nM IL-15 alone
[2] = biological target: PD-1 on in vitro activated primary human T cells (human) (UniProt Q15116); experiment: flow cytometry, detection antibody on Ki-67+ CD4+ activated T cells after 4 d with 10 nM RV2 precomplexed with IL-15
[3] = biological target: PD-1 on in vitro activated primary human T cells (human) (UniProt Q15116); experiment: flow cytometry, detection antibody on Ki-67+ CD8+ activated T cells after 4 d with 1 nM RV2 precomplexed with IL-15
[4] = biological target: PD-1 on in vitro activated primary human T cells (human) (UniProt Q15116); experiment: flow cytometry, residual staining by detection antibody on Ki-67+ CD8+ activated T cells in the presence of competitors RV29 and RV32 (IL-15 precomplexed); average pooled over both constructs and 100, 10 and 1 nM
[5] = biological target: PD-1 on in vitro activated primary human T cells (human) (UniProt Q15116); experiment: flow cytometry, detection antibody on Ki-67+ CD4+ activated T cells after 4 d with 1 nM RV1 precomplexed with IL-15
[6] = biological target: PD-1 on in vitro activated primary human T cells (human) (UniProt Q15116); experiment: flow cytometry, detection antibody on Ki-67+ CD4+ activated T cells; average pooled over non-PD-1-binding test samples and concentrations
[7] = biological target: PD-1 on in vitro activated primary human T cells (human) (UniProt Q15116); experiment: flow cytometry, detection antibody on Ki-67+ CD8+ activated T cells after 4 d with 10 nM RV2 precomplexed with IL-15
[8] = biological target: PD-1 on in vitro activated primary human T cells (human) (UniProt Q15116); experiment: flow cytometry, residual staining by detection antibody on Ki-67+ CD4+ activated T cells in the presence of competitors RV29 and RV32 (IL-15 precomplexed); average pooled over both constructs and 100, 10 and 1 nM
[9] = biological target: PD-1 on in vitro activated primary human T cells (human) (UniProt Q15116); experiment: flow cytometry, detection antibody on Ki-67+ CD8+ activated T cells after 4 d with 100 nM RV2 precomplexed with IL-15
[10] = biological target: PD-1 on in vitro activated primary human T cells (human) (UniProt Q15116); experiment: flow cytometry, detection antibody on Ki-67+ CD8+ activated T cells after 4 d with 10 nM IL-15 alone
[11] = biological target: PD-1 on in vitro activated primary human T cells (human) (UniProt Q15116); experiment: flow cytometry, detection antibody on Ki-67+ CD8+ activated T cells after 4 d with 1 nM IL-15Rα-Fc precomplexed with IL-15
[12] = biological target: PD-1 on in vitro activated primary human T cells (human) (UniProt Q15116); experiment: flow cytometry, detection antibody on Ki-67+ CD8+ activated T cells after 4 d with 100 nM IL-15Rα-Fc precomplexed with IL-15
[13] = biological target: PD-1 on in vitro activated primary human T cells (human) (UniProt Q15116); experiment: flow cytometry, detection antibody on Ki-67+ CD8+ activated T cells; average pooled over non-PD-1-binding test samples and concentrations
[14] = biological target: PD-1 on in vitro activated primary human T cells (human) (UniProt Q15116); experiment: flow cytometry, detection antibody on Ki-67+ CD4+ activated T cells after 4 d with 100 nM IL-15 alone
[15] = biological target: PD-1 on in vitro activated primary human T cells (human) (UniProt Q15116); experiment: flow cytometry, detection antibody on Ki-67+ CD4+ activated T cells after 4 d with 10 nM IL-15Rα-Fc precomplexed with IL-15
[16] = biological target: PD-1 on in vitro activated primary human T cells (human) (UniProt Q15116); experiment: flow cytometry, detection antibody on Ki-67+ CD4+ activated T cells after 4 d with 100 nM RV2 precomplexed with IL-15
[17] = biological target: PD-1 on in vitro activated primary human T cells (human) (UniProt Q15116); experiment: flow cytometry, detection antibody on Ki-67+ CD8+ activated T cells after 4 d with 10 nM RV1 precomplexed with IL-15
[18] = biological target: PD-1 on in vitro activated primary human T cells (human) (UniProt Q15116); experiment: flow cytometry, detection antibody on Ki-67+ CD8+ activated T cells after 4 d with 1 nM RV1 precomplexed with IL-15
[19] = biological target: PD-1 on in vitro activated primary human T cells (human) (UniProt Q15116); experiment: flow cytometry, detection antibody on Ki-67+ CD8+ activated T cells after 4 d with 10 nM IL-15Rα-Fc precomplexed with IL-15
[20] = biological target: PD-1 on in vitro activated primary human T cells (human) (UniProt Q15116); experiment: flow cytometry, detection antibody on Ki-67+ CD4+ activated T cells after 4 d with 100 nM IL-15Rα-Fc precomplexed with IL-15
[21] = biological target: PD-1 on in vitro activated primary human T cells (human) (UniProt Q15116); experiment: flow cytometry, detection antibody on Ki-67+ CD8+ activated T cells after 4 d with 1 nM IL-15 alone
[22] = biological target: PD-1 on in vitro activated primary human T cells (human) (UniProt Q15116); experiment: flow cytometry, detection antibody on Ki-67+ CD4+ activated T cells after 4 d with 100 nM RV1 precomplexed with IL-15
[23] = biological target: PD-1 on in vitro activated primary human T cells (human) (UniProt Q15116); experiment: flow cytometry, detection antibody on Ki-67+ CD4+ activated T cells after 4 d with 10 nM RV1 precomplexed with IL-15
[24] = biological target: PD-1 on in vitro activated primary human T cells (human) (UniProt Q15116); experiment: flow cytometry, detection antibody on Ki-67+ CD8+ activated T cells, media only
[25] = biological target: PD-1 on in vitro activated primary human T cells (human) (UniProt Q15116); experiment: flow cytometry, detection antibody on Ki-67+ CD4+ activated T cells after 4 d with 1 nM IL-15Rα-Fc precomplexed with IL-15
[26] = biological target: PD-1 on in vitro activated primary human T cells (human) (UniProt Q15116); experiment: flow cytometry, detection antibody on Ki-67+ CD4+ activated T cells after 4 d with 1 nM RV2 precomplexed with IL-15
[27] = biological target: PD-1 on in vitro activated primary human T cells (human) (UniProt Q15116); experiment: flow cytometry, detection antibody on Ki-67+ CD4+ activated T cells, media only
[28] = biological target: PD-1 on in vitro activated primary human T cells (human) (UniProt Q15116); experiment: flow cytometry, detection antibody on Ki-67+ CD4+ activated T cells after 4 d with 1 nM IL-15 alone
[29] = biological target: PD-1 on in vitro activated primary human T cells (human) (UniProt Q15116); experiment: flow cytometry, detection antibody on Ki-67+ CD8+ activated T cells after 4 d with 100 nM RV1 precomplexed with IL-15
[30] = biological target: PD-1 on in vitro activated primary human T cells (human) (UniProt Q15116); experiment: flow cytometry, detection antibody on Ki-67+ CD4+ activated T cells after 4 d with 10 nM IL-15 alone

Sequence of PD-1 on in vitro activated primary human T cells (human) (Q15116 25-288): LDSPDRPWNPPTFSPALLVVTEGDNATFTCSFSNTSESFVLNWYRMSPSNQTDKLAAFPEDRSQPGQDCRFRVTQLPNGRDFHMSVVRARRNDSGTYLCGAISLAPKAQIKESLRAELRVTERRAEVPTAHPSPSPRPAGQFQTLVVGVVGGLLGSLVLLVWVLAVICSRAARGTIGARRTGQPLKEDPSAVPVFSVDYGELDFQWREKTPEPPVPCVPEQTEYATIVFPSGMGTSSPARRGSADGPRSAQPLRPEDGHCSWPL

- MFI of PD-1 staining [1]: 3220 MFI
- MFI of PD-1 staining [2]: 5070 MFI
- MFI of PD-1 staining [3]: 1920 MFI
- MFI of PD-1 staining (average) [4]: 1460 MFI
- MFI of PD-1 staining [5]: 4100 MFI
- MFI of PD-1 staining (average) [6]: 4830 MFI
- MFI of PD-1 staining [7]: 2020 MFI
- MFI of PD-1 staining (average) [8]: 3090 MFI
- MFI of PD-1 staining [9]: 2820 MFI
- MFI of PD-1 staining [10]: 3190 MFI
- MFI of PD-1 staining [11]: 1690 MFI
- MFI of PD-1 staining [12]: 2110 MFI
- MFI of PD-1 staining (average) [13]: 2190 MFI
- MFI of PD-1 staining [14]: 6550 MFI
- MFI of PD-1 staining [15]: 4480 MFI
- MFI of PD-1 staining [16]: 5840 MFI
- MFI of PD-1 staining [17]: 1890 MFI
- MFI of PD-1 staining [18]: 1870 MFI
- MFI of PD-1 staining [19]: 2120 MFI
- MFI of PD-1 staining [20]: 4380 MFI
- MFI of PD-1 staining [21]: 2050 MFI
- MFI of PD-1 staining [22]: 4830 MFI
- MFI of PD-1 staining [23]: 4620 MFI
- MFI of PD-1 staining [24]: 2250 MFI
- MFI of PD-1 staining [25]: 4280 MFI
- MFI of PD-1 staining [26]: 4200 MFI
- MFI of PD-1 staining [27]: 4020 MFI
- MFI of PD-1 staining [28]: 4870 MFI
- MFI of PD-1 staining [29]: 2370 MFI
- MFI of PD-1 staining [30]: 6440 MFI
Substance: PD-1 detection antibody (clone EH12.21H7)
